Data taken from patent US7256007B2, “Methods of regulating cytokine signalling” (The Walter and Eliza Hall Institute of Medical Research, priority 2000, dated 2007).
Square brackets hold non-standard residues; d marks the D form. Ends that are not written are not given here. pY = N[C@@H](Cc1ccc(OP(=O)(O)O)cc1)C(=O)O

B1: SOCS-3 (recombinant, His-tagged) (protein)
chain: MVTHSKFPAAGMSRPLDTSLRLKTFSSKSEYQLVVNAVRKLQESGFYWSAVTGGEANLLLSAEPAGTFLIRDSSDQRHFFTLSVKTQSGTKNLRIQCEGGSFSLQSDPRSTQPVPRFDCVLKLVHHYMPPPGTPSFSLPPTEPSSEVPEQPPAQALPGSTPKRAYYIYSGGEKIPLVLSRPLSSNVATLQHLCRKTVNGHLDSYEKVTQLPGPIREFLDQYDAPL

What was measured:
SOCS-3 = target: T1, SOCS-3 (Mus musculus, UniProt O35718); assay: Biosensor (SPR) analysis of recombinant SOCS-3 binding to immobilized biotinylated phosphopeptide; design: species or system murine; details: non-specific control channel on the same chip
T1 construct: hexahistidine (pET15b) (N); made in house; host or cells: E. coli BL21 DE3 pLysS
T1 sequence (O35718 1-225): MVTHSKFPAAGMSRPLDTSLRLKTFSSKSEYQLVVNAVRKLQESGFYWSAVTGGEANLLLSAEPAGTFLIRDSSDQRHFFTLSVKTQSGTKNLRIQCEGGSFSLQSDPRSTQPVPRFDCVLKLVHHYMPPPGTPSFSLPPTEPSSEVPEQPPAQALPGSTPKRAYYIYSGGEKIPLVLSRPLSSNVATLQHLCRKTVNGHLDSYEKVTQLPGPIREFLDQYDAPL
Experimental: Purified protein was refolded by dialysis into PBS containing 2 mM DTT, 2 mM EDTA and 0.02% v/v Tween 20. Refolded material was purified to homogeneity by ion exchange chromatography on a Mono S column (Pharmacia).
Phosphopeptides containing an N-terminal biotin moiety were immobilized onto a streptavidin-coated Biosensor chip (Pharmacia) at a density of ˜200 Resonance Units (Rus). […] Binding profiles were analyzed using the BIAevaluation software version 3.0 (Pharmacia).

EPOR/gp130Y757F = assay: APRE-luc luciferase reporter assay in transiently transfected 293T cells, EPO stimulated; format: cell-based; details: gp130 cytoplasmic domain with Y757F mutation, 10U/ml EPO overnight
Experimental: Generation of the expression vectors for SOCS-1 and SOCS-3, luciferase assays and Western blot analysis have been described previously (Nicholson et al., 1999). Briefly, 293T cells were transiently transfected with SOCS expression plasmids, a LIF-responsive reporter construct (APRE-luc; Endo et al., 1997) and a β-galactosidase reporter construct under a constitutive promoter (Srα-β-gal; Ogilvy et al., 1998). Luciferase activity from triplicate samples was determined and normalized against β-galactosidase activity.
It was therefore important to confirm these findings using a biological assay. A chimeric receptor was created that contained the erythropoietin receptor (EPOR) extracellular domain and the gp130 cytoplasmic domain (EPOR/gp130). A second receptor was created containing the EPO receptor extracellular domain and the gp130 cytoplasmic domain in which tyrosine 757 had been mutated to phenylalanine (EPOR/gp130Y757F). 293T cells were transiently transfected with cDNAs expressing the receptor constructs and either SOCS-3 or SOCS-1 in the presence of the APRE-luc and Srα-β-gal reporter genes. Cells were then incubated in the presence of 10U/ml EPO overnight and luciferase activity determined. Mutation of Y757 in the gp130 cytoplasmic domain has been reported to result in a hyperactive receptor complex, presumably from the loss of a negative regulator such as SHP-2. […]

[1] = target: B1; assay: competition, SPR
[2] = target: T2, gp130(674-688) pY681 control phosphopeptide (mouse, not fully specified (N-terminus); printed as FNSKDQM(pY)SDGNFTD; also: biotinylated, site not given here); assay: SPR
T2 chain: FNSKDQM[pY]SDGNFTD-NH2

Sequence of EPOR/gp130Y757F (Q00560 640-917 Y757F limits assumed): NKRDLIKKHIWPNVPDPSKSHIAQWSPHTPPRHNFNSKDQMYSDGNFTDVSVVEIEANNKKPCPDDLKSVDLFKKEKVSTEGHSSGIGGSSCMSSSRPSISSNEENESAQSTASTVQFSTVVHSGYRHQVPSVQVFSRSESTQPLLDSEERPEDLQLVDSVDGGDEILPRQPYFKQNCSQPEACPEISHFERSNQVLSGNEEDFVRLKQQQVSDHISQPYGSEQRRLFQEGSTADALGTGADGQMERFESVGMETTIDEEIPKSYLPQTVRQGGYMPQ

Molecule	IC50 [1] [nM]	also measured
FNSKDQM(pY)SDGNFTD (FNSKDQM[pY]SDGNFTD-NH2; N-terminus assumed; SMILES CSCC[C@H](NC(=O)[C@H](CCC(N)=O)NC(=O)[C@H](CC(=O)O)NC(=O)[C@H](CCCCN)NC(=O)[C@H](CO)NC(=O)[C@H](CC(N)=O)NC(=O)[C@@H](N)Cc1ccccc1)C(=O)N[C@@H](Cc1ccc(OP(=O)(O)O)cc1)C(=O)N[C@@H](CO)C(=O)N[C@@H](CC(=O)O)C(=O)NCC(=O)N[C@@H](CC(N)=O)C(=O)N[C@@H](Cc1ccccc1)C(=O)N[C@H](C(=O)N[C@@H](CC(=O)O)C(N)=O)[C@@H](C)O) [gp30(674-688) phosphopeptide, non-cognate gp130 phosphopeptide immobilized as non-specific control]	–	specific binding of SOCS-3 to immobilized peptide (SOCS-3): no specific binding was detected
SOCS-3: suppressor of cytokine signaling 3, expressed from transfected cDNA in 293T cells	–	SOCS-3 DNA giving 50% inhibition of luciferase activity (EPOR/gp130Y757F): 54 ng
Ac-AE[pY]STVVHSG-NH2 (SMILES CC(=O)N[C@@H](C)C(=O)N[C@@H](CCC(=O)O)C(=O)N[C@@H](Cc1ccc(OP(=O)(O)O)cc1)C(=O)N[C@@H](CO)C(=O)N[C@H](C(=O)N[C@H](C(=O)N[C@H](C(=O)N[C@@H](Cc1c[nH]cn1)C(=O)N[C@@H](CO)C(=O)NCC(N)=O)C(C)C)C(C)C)[C@@H](C)O) [AcAE(pY)STVVHSG]	580	–
STASTVE[pY]STVVH-NH2 (N-terminus assumed; SMILES CC(C)[C@H](NC(=O)[C@@H](NC(=O)[C@@H](NC(=O)[C@H](CO)NC(=O)[C@H](Cc1ccc(OP(=O)(O)O)cc1)NC(=O)[C@H](CCC(=O)O)NC(=O)[C@@H](NC(=O)[C@@H](NC(=O)[C@H](CO)NC(=O)[C@H](C)NC(=O)[C@@H](NC(=O)[C@@H](N)CO)[C@@H](C)O)[C@@H](C)O)C(C)C)[C@@H](C)O)C(C)C)C(=O)N[C@@H](Cc1c[nH]cn1)C(N)=O) [STASTVE(pY)STVVH]	77	–
STASTVE[pY]STAVHSG-NH2 (N-terminus assumed; SMILES CC(C)[C@H](NC(=O)[C@H](C)NC(=O)[C@@H](NC(=O)[C@H](CO)NC(=O)[C@H](Cc1ccc(OP(=O)(O)O)cc1)NC(=O)[C@H](CCC(=O)O)NC(=O)[C@@H](NC(=O)[C@@H](NC(=O)[C@H](CO)NC(=O)[C@H](C)NC(=O)[C@@H](NC(=O)[C@@H](N)CO)[C@@H](C)O)[C@@H](C)O)C(C)C)[C@@H](C)O)C(=O)N[C@@H](Cc1c[nH]cn1)C(=O)N[C@@H](CO)C(=O)NCC(N)=O) [gp130 phosphopeptide V11A]	3400	–
STASTVE[pY]STVVHS-NH2 (N-terminus assumed; SMILES CC(C)[C@H](NC(=O)[C@@H](NC(=O)[C@@H](NC(=O)[C@H](CO)NC(=O)[C@H](Cc1ccc(OP(=O)(O)O)cc1)NC(=O)[C@H](CCC(=O)O)NC(=O)[C@@H](NC(=O)[C@@H](NC(=O)[C@H](CO)NC(=O)[C@H](C)NC(=O)[C@@H](NC(=O)[C@@H](N)CO)[C@@H](C)O)[C@@H](C)O)C(C)C)[C@@H](C)O)C(C)C)C(=O)N[C@@H](Cc1c[nH]cn1)C(=O)N[C@@H](CO)C(N)=O) [STASTVE(pY)STVVHS]	61	–
B1	–	binding result [2]: no binding
STASTVE[pY]ATVVHSG-NH2 (N-terminus assumed; SMILES CC(C)[C@H](NC(=O)[C@@H](NC(=O)[C@@H](NC(=O)[C@H](C)NC(=O)[C@H](Cc1ccc(OP(=O)(O)O)cc1)NC(=O)[C@H](CCC(=O)O)NC(=O)[C@@H](NC(=O)[C@@H](NC(=O)[C@H](CO)NC(=O)[C@H](C)NC(=O)[C@@H](NC(=O)[C@@H](N)CO)[C@@H](C)O)[C@@H](C)O)C(C)C)[C@@H](C)O)C(C)C)C(=O)N[C@@H](Cc1c[nH]cn1)C(=O)N[C@@H](CO)C(=O)NCC(N)=O) [gp130 phosphopeptide S9A]	72	–
